The text below walks through data of patent US20100254896A1.

The test concerns the target αvβ3 receptors on M21 human melanoma cells (human) (UniProt P06756). Briefly: cell-based or functional assay.
UniProt P06756, sequence (P06756 31-1048, chain 1 of 2): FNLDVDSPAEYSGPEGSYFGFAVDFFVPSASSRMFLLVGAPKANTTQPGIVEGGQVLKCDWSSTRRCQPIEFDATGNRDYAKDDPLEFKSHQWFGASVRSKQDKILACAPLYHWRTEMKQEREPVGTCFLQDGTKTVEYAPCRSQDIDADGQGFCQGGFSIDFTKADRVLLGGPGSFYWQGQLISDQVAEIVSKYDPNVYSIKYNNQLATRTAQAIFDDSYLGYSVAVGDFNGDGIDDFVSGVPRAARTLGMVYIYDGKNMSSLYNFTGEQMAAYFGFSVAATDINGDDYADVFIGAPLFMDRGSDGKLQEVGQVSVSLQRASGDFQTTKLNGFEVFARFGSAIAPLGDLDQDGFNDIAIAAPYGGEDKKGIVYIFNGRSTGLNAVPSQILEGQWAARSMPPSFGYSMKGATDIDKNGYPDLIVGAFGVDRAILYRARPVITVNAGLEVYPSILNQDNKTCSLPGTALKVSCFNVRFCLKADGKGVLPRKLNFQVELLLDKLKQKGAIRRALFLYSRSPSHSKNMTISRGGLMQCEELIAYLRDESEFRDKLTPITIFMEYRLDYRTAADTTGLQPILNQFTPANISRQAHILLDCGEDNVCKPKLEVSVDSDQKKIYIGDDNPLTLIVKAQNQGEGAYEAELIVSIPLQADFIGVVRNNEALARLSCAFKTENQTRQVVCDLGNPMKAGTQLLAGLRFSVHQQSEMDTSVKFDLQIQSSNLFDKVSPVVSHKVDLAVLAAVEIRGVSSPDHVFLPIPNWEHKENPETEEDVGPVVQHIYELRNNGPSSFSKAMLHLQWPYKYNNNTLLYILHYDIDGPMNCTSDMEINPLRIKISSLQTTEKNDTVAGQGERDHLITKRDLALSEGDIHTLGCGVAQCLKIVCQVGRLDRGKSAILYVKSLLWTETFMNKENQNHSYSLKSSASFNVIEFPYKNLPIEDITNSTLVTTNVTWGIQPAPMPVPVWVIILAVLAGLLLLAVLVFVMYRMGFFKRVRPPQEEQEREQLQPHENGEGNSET
UniProt P06756, sequence (P05106 27-788, chain 2 of 2, further chain): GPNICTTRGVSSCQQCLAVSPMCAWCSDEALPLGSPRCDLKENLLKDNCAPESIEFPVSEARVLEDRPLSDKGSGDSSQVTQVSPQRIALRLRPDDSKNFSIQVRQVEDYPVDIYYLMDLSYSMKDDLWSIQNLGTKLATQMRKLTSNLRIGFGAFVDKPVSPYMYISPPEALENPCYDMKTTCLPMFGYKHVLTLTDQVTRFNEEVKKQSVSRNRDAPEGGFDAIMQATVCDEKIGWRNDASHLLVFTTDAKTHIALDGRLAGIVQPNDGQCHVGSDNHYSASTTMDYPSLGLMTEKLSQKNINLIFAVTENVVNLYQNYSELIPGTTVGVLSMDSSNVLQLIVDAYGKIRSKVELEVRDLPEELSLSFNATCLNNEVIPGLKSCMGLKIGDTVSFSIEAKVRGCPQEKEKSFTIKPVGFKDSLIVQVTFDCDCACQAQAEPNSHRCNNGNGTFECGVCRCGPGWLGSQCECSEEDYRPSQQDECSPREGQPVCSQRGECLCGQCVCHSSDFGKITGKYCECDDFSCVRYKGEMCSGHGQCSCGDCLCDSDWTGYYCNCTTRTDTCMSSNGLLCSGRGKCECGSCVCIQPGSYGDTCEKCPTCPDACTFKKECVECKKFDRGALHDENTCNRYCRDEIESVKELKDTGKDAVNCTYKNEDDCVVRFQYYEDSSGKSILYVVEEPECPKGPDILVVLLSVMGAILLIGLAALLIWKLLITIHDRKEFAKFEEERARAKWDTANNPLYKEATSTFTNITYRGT

Regarding fd (non-targeted null AAVP), the phage internalization assay, pfu/µl is 300 pfu/µl.
Substance “RGD (targeted null AAVP, Example 2) (peptide)” came in with a phage internalization assay, pfu/µl of 14000 pfu/µl.
To “RGDTNF-α (targeted TNF-α expressing AAVP) (peptide)” belongs 21500 pfu/µl; to “fdTNF-α (non-targeted TNF-α expressing AAVP)”, 600 pfu/µl.
